The values below come from publication PMC6101569.

The target of experiment [1] is APLF^AD labelled with the fluorescent tag NT-647 (human) (UniProt Q8IW19). The experiment is described as follows: MST.
Experiment [2] concerns the target APLF acidic domain (APLF^AD), Homo sapiens APLF residues 450-511, wild type (human) (UniProt Q8IW19). The experiment is described as follows: cross-linking.

Chain of APLF^AD labelled with the fluorescent tag NT-647 (human) (Q8IW19 450-511): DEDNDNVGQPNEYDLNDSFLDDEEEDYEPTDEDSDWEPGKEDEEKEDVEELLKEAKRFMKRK
Chain of APLF acidic domain (APLF^AD), Homo sapiens APLF residues 450-511, wild type (human) (Q8IW19 450-511): as above

Substance “H2A-H2B histone dimer from Drosophila melanogaster (from UniProt P84051 2-121; P02283 2-123) (complex)” had a KD,1 (high-affinity binding event, sequential-binding model) in experiment [1] of 0.8 µM. Besides, in experiment [2], the stoichiometry N worked out at 1.
In experiment [1], “(H3-H4)2 histone tetramer from Drosophila melanogaster (from UniProt P02299 2-136; P84040 2-103) (complex)” registered a KD of the secondary binding over KD of the high-affinity binding (fold) of 50 fold and a KD,1 (high-affinity binding event, sequential-binding model) of 1.4 µM.

One may read the stoichiometry N as the number of molecules, sites or subunits per partner or assembly.
